Measured values: US20090304721A1 (MEDLMMUNE, published 2009)

Assays:
[1] = target: T1, human EphA2 expressed on cells (human, UniProt P29317 24-976); assay: cell-based or functional assay
[2] = target: T1, human EphA2 expressed on cells; assay: immunofluorescence of HUVEC cells labeled with 50 ug/ml antibody at 4 C, 0 or 20 min at 37 C, fixed, permeabilized, AlexaFluor 488 goat anti-human IgG, DAPI mounting medium
[3] = target: T2, mouse EphA2 expressed on cells (mouse, UniProt Q03145 26-977); assay: flow cytometry on tumor cell lines, 1 ug antibody, PE anti-human IgG
T2 construct: whole, on cells
Method: (§1) The cells were then washed 2× with cold PBS and stained for 30 minutes at 4° C. with secondary Abs (Phycoerythin conjugated goat-a-human IgG, Biosource). Fluorescence analysis was performed using a FACS Calibur flow cytometer (BD Biosciences).

[4] = target: T1, human EphA2 expressed on cells; assay: flow cytometry on twelve human cell lines, 1 ug primary antibody per 2x10^5 cells, PE goat anti-human IgG; y axis Mean Fl. Shift (%)
Method: as §1

T1 sequence (P29317 24-976): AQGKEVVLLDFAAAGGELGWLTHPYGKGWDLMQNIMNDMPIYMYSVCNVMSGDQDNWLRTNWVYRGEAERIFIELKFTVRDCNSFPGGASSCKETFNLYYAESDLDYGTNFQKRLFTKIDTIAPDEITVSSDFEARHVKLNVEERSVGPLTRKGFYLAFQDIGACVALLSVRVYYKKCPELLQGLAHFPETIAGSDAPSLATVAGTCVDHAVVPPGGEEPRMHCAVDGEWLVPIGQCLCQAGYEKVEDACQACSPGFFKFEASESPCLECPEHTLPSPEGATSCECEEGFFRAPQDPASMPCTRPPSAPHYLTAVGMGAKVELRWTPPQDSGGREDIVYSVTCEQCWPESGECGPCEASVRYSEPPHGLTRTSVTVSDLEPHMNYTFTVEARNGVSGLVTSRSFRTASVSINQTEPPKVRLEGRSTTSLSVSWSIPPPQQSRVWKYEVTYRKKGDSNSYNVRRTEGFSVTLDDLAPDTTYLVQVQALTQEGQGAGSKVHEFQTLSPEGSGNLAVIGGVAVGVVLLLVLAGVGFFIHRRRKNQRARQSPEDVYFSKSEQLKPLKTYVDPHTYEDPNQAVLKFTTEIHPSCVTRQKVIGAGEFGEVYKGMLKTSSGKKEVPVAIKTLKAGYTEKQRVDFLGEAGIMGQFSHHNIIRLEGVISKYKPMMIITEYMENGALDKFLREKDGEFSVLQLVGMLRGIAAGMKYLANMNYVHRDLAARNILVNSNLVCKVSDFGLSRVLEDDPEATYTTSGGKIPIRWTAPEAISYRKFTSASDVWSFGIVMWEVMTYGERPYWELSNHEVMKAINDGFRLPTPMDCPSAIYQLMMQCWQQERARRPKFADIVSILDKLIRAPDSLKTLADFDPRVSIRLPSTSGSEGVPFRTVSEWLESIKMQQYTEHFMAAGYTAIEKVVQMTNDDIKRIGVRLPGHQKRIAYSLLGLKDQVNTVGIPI
T2 sequence (Q03145 26-977): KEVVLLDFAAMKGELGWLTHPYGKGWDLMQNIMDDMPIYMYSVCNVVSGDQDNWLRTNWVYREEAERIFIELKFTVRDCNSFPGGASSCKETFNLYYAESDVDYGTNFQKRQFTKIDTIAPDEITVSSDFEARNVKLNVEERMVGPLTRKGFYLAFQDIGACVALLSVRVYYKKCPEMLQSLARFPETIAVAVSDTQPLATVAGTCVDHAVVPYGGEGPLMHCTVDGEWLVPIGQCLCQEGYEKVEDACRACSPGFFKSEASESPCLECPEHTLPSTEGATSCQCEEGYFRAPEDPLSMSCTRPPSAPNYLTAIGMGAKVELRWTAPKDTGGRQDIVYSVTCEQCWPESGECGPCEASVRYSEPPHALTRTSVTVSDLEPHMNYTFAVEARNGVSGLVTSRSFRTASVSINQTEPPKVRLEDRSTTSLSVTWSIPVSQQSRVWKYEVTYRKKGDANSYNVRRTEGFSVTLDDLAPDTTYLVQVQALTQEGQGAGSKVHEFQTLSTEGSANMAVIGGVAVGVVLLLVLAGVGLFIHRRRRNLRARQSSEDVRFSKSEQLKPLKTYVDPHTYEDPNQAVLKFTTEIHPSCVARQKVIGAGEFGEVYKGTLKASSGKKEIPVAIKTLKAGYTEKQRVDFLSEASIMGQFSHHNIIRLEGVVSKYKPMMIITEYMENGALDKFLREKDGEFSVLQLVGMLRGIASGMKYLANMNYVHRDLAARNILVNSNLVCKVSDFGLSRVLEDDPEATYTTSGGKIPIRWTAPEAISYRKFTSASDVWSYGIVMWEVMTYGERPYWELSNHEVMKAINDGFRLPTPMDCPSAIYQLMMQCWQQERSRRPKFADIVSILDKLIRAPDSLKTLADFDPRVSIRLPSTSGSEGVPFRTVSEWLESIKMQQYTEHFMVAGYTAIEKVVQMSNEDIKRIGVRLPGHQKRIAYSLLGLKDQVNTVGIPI

B1: 3F2mcMMAF (antibody, V domains shown)
VH: EVQLVESGGGVVRPGGSLRLSCAASGFTVSDYSMNWVRQAPGKGLEWIGFIRNKANAYTTEYSASVKGRFTISRDDSKNTLYLQMNSLKTEDTAVYYCTTYPRYHAMDSWGQGTMVTVSS
VL: AIQLTQSPSSLSASVGDRVTITCRASQSISNNLHWYLQKPGQSPQLLIYYGFQSISGVPSRFSGSGSGTDFTLTISSLQPEDFATYYCQQANSWPLTFGGGTKLEIK
modifications: antibody conjugated to monomethylauristatin F (MMAF) through a maleimidocaproyl-citrulline (mc) linker; attachment residues not stated
IC50 (read off the curve), growth inhibition of MCF10-A cells [1]: ~20 nM

B2: anti-EphA2 antibody 3F2 (antibody, V domains shown)
VH: EVQLVESGGGVVRPGGSLRLSCAASGFTVSDYSMNWVRQAPGKGLEWIGFIRNKANAYTTEYSASVKGRFTISRDDSKNTLYLQMNSLKTEDTAVYYCTTYPRYHAMDSWGQGTMVTVSS
VL: AIQLTQSPSSLSASVGDRVTITCRASQSISNNLHWYLQKPGQSPQLLIYYGFQSISGVPSRFSGSGSGTDFTLTISSLQPEDFATYYCQQANSWPLTFGGGTKLEIK
notes: Humanized agonistic monoclonal antibody
binding result [2]: binds

B3: anti-EphA2 antibody 1H3 (antibody, V domains shown)
VH: EVQLLESGGGLVQPGGSLRLSCAASGFTFSMYAMRWVRQAPGKGLEWVSVIGPSGGWTPYADSVKGRFTISRDNSKNTLYLQMNSLRAEDTAVYYCARDRGIYGMDVWGQGTTVTVSS
VL: DIQMTQSPSFLSASVGDRVTITCRASQGISSYLAWYQQKPGKAPKLLIYAASTLQSGVPSRFSGSGSGTEFTLTISSLQPEDFATYYCLELNNYPFTFGLGTKVHIK
binding result [3]: binds | binding result [4]: binds
